# In patent US20110110856A1 (SIGNALOMICS, published 2011):
# Changes are numbered by the printed parent chain. In names and notes the source's numbering stands.
# T1: N-terminal domain of CEA (Homo sapiens (Human), UniProt P06731 35-144)
# T1 construct: Target of the yeast two-hybrid screens; synthetic gene, codon-optimised for S. cerevisiae, cloned into a yeast TH vector; The fusion partner of the vector is not described; also called N-CEA; CEACAM5
# T1 sequence: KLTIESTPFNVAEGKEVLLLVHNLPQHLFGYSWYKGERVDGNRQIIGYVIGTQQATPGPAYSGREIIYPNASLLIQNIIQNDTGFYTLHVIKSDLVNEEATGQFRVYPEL
# B1: DraE T88M (N77K) I111H (ligand)
# chain: GFTPSGTTGTTKLTVTEECQVRVGDLTVAKTRGQLTDAAPIGPVTVQALGCDARQVALKADTDNFEQGKFFLISDNKRDKLYVNIRPMDNSAWTTDNGVFYKNDVGSWGGHIGIYVDGQQTNTPPGNYTLTLTGGYWAK
# B2: DraE T88M G118S I85L (ligand)
# chain: B1 chain with I85L, H111I, G118S
# B3: DraE T88M Q34L N84S (ligand)
# chain: B1 chain with Q34L, N84S, H111I
# B4: combination mutant F100I T123I (on DraE T88M N77K) (ligand)
# chain: B1 chain with F100I, H111I, T123I
# B5: combined mutant F100S T11I D37G (on DraE T88M N77K) (ligand)
# chain: B1 chain with T11I, D37G, F100S, H111I
# notes: also called F1005 T11I D37G
# B6: combined mutant T95E T123I (on DraE T88M N77K) (ligand)
# chain: B1 chain with T95E, H111I, T123I
# notes: also called T95E T1231
# Molecular target: T1, N-terminal domain of CEA
# Assay: yeast two-hybrid screen against N-CEA
row,Binder,binding result
1,B1,binds

# Molecular target: T1, N-terminal domain of CEA
# Assay: yeast two-hybrid, FDG rescreening
row,Binder,binding result
1,B2,binds
2,B3,binds
3,B4,binds
4,B5,binds
5,B6,binds
